The record followed here is US20210380703A1.

B1: 375_G10 (antibody, V domains shown)
VH: EVQLLESGGGLVQPGGSLRLSCAASGFTFSSYGMNWVRQAPGKGLEWVSSINYNGGYKSYADSVKGRFTISRDNSKNTLYLQMNSLRAEDTAVYYCARSATWHDTHLDYWGQGTLVTVSS
VL: DIQMTQSPSSLSASVGDRVTITCRASQSIVTYLNWYQQKPGKAPKLVIYAATSRHSGVPSRFSGSGSGTDFTLTISSLQPEDFATYYCQQSYDTPLTFGGGTKVEIK
B2: 368_C12 (antibody, V domains shown)
VH: EVQLLESGGGLVQPGGSLRLSCAASGFTFDSYGMHWVRQAPGKGLEWVASINYNGGYTSYADSVKGRFTISRDNSKNTLYLQMNSLRAEDTAVYYCARAATWHDTHLDYWGQGTLVTVSS
VL: DIQMTQSPSSLSASVGDRVTITCRASQSILTYLNWYQQKPGKAPKLLIYAATSRASGVPSRFSGSGSGTDFTLTISSLQPEDFATYYCQQSDSNPLTFGGGTKVEIK
B3: 368_G08 (antibody, V domains shown)
VH: EVQLLESGGGLVQPGGSLRLSCAASGFTFDDYGMNWVRQAPGKGLEWVSSINYNSGYKSYADSVKGRFTISRDNSKNTLYLQMNSLRAEDTAVYYCARSATWHDTHLDYWGQGTLVTVSS
VL: DIQMTQSPSSLSASVGDRVTITCRASQSIVSYVNWYQQKPGKAPKLLIYAATSRHSGVPSRFSGSGSGTDFTLTISSLQPEDFATYYCQQSYNNPLTFGGGTKVEIK
B4: 370_A10 (antibody, V domains shown)
VH: EVQLLESGGGLVQPGGSLRLSCAASGFTFSDYSMNWVRQAPGKGLEWVSSINYNSGYKGYADSVKGRFTISRDNSKNTLYLQMNSLRAEDTAVYYCARSATWHDTHLDYWGQGTLVTVSS
VL: DIQMTQSPSSLSASVGDRVTITCRASQSILSYVNWYQQKPGKAPKLLIYAATSLASGVPSRFSGSGSGTDFTLTISSLQPEDFATYYCQQSYDTPLTFGGGTKVEIK
B5: 368_B12 (antibody, V domains shown)
VH: EVQLLESGGGLVQPGGSLRLSCAASGFTFDSYGMHWVRQAPGKGLEWVSGINYNSGYTSYADSVKGRFTISRDNSKNTLYLQMNSLRAEDTAVYYCARAATWHDTHLDYWGQGTLVTVSS
VL: DIQMTQSPSSLSASVGDRVTITCRASQSIVSYVNWYQQKPGKAPKLLIYAATSRASGVPSRFSGSGSGTDFTLTISSLQPEDFATYYCQQSYDLPLTFGGGTKVEIK
B6: 368_H10 (antibody, V domains shown)
VH: EVQLLESGGGLVQPGGSLRLSCAASGFTFSSYSMNWVRQAPGKGLEWVSSINYNSGYKGYADSVKGRFTISRDNSKNTLYLQMNSLRAEDTAVYYCARSATWHDTHLDYWGQGTLVTVSS
VL: DIQMTQSPSSLSASVGDRVTITCRASQSIVSYVNWYQQKPGKAPKLVIYAVTSLASGVPSRFSGSGSGTDFTLTISSLQPEDFATYYCQQSYETPLTFGGGTKVEIK
B7: 368_C07 (antibody, V domains shown)
VH: EVQLLESGGGLVQPGGSLRLSCAASGFTFSSYGMHWVRQAPGKGLEWVAGINYNSGYTSYADSVKGRFTISRDNSKNTLYLQMNSLRAEDTAVYYCARAATWHDTHLDYWGQGTLVTVSS
VL: DIQMTQSPSSLSASVGDRVTITCRASQSIVSYVNWYQQKPGKAPKLVIYAATSRASGVPSRFSGSGSGTDFTLTISSLQPEDFATYYCQQSYENPLTFGGGTKVEIK
B8: 375_G12 (antibody, V domains shown)
VH: EVQLLESGGGLVQPGGSLRLSCAASGFTFDSYGMHWVRQAPGKGLEWVSSINYNGGYTSYADSVKGRFTISRDNSKNTLYLQMNSLRAEDTAVYYCARSATWHDTHLDYWGQGTLVTVSS
VL: DIQMTQSPSSLSASVGDRVTITCRASQSIVSYVNWYQQKPGKAPKLLIYAATSRHSGVPSRFSGSGSGTDFTLTISSLQPEDFATYYCQQSYDTPLTFGGGTKVEIK
B9: 368_G07 (antibody, V domains shown)
VH: EVQLLESGGGLVQPGGSLRLSCAASGFTFSSYSMHWVRQAPGKGLEWVSSINYNGGYTSYADSVKGRFTISRDNSKNTLYLQMNSLRAEDTAVYYCARSATWHDTHLDYWGQGTLVTVSS
VL: DIQMTQSPSSLSASVGDRVTITCRASQSIVSYVNWYQQKPGKAPKLVIYAATSRASGVPSRFSGSGSGTDFTLTISSLQPEDFATYYCQQSYDTPLTFGGGTKVEIK
B10: 374_E06 (antibody, V domains shown)
VH: EVQLLESGGGLVQPGGSLRLSCAASGFTFDSYSMNWVRQAPGKGLEWVSSINYNSGYKGYADSVKGRFTISRDNSKNTLYLQMNSLRAEDTAVYYCARSATWHDTHLDYWGQGTLVTVSS
VL: DIQMTQSPSSLSASVGDRVTITCRASQSILSYLNWYQQKPGKAPKLLIYAATSRASGVPSRFSGSGSGTDFTLTISSLQPEDFATYYCQQSYDLPLTFGGGTKVEIK
B11: 368_B04 (antibody, V domains shown)
VH: EVQLLESGGGLVQPGGSLRLSCAASGFTFDSYGMHWVRQAPGKGLEWVSSINYNGGYTSYADSVKGRFTISRDNSKNTLYLQMNSLRAEDTAVYYCARAATWHDTHLDYWGQGTLVTVSS
VL: DIQMTQSPSSLSASVGDRVTITCRASQSIVSYLNWYQQKPGKAPKLVIYAATSRASGVPSRFSGSGSGTDFTLTISSLQPEDFATYYCQQSYENPLTFGGGTKVEIK
B12: 375_F01 (antibody, V domains shown)
VH: EVQLLESGGGLVQPGGSLRLSCAASGFTFSSYSMNWVRQAPGKGLEWVSSINYNSGYTGYADSVKGRFTISRDNSKNTLYLQMNSLRAEDTAVYYCARSATWHDTHLDYWGQGTLVTVSS
VL: DIQMTQSPSSLSASVGDRVTITCRASQSIVSYLNWYQQKPGKAPKLVIYAATSRASGVPSRFSGSGSGTDFTLTISSLQPEDFATYYCQQSYDNPLTFGGGTKVEIK
B13: 370_A08 (antibody, V domains shown)
VH: EVQLLESGGGLVQPGGSLRLSCAASGFTFDSYSMNWVRQAPGKGLEWVSSINYNSGYTGYADSVKGRFTISRDNSKNTLYLQMNSLRAEDTAVYYCARSATWHDTHLDYWGQGTLVTVSS
VL: DIQMTQSPSSLSASVGDRVTITCRASQSIVTYLNWYQQKPGKAPKLVIYAATSRASGVPSRFSGSGSGTDFTLTISSLQPEDFATYYCQQSYDLPLTFGGGTKVEIK
B14: 367_H08 (antibody, V domains shown)
VH: EVQLLESGGGLVQPGGSLRLSCAASGFTFDSYGMNWVRQAPGKGLEWVSSINYNGGYTSYADSVKGRFTISRDNSKNTLYLQMNSLRAEDTAVYYCARAATWHDTHLDYWGQGTLVTVSS
VL: DIQMTQSPSSLSASVGDRVTITCRASQSILTYVNWYQQKPGKAPKLLIYAATSRHSGVPSRFSGSGSGTDFTLTISSLQPEDFATYYCQQSYNLPLTFGGGTKVEIK
B15: 367_H04 (antibody, V domains shown)
VH: EVQLLESGGGLVQPGGSLRLSCAASGFTFSSYSMNWVRQAPGKGLEWVSSINYNGGYTSYADSVKGRFTISRDNSKNTLYLQMNSLRAEDTAVYYCARSATWHDTHLDYWGQGTLVTVSS
VL: DIQMTQSPSSLSASVGDRVTITCRASQSILTYVNWYQQKPGKAPKLLIYAATSRHSGVPSRFSGSGSGTDFTLTISSLQPEDFATYYCQQSDNNPLTFGGGTKVEIK

For the experiment, the target named is human Fc (human). Nature of the experiment: ELISA, negative control.
In turn, B1 had an optical density of 0.175 OD.

For the molecule B2, the optical density worked out at 0.346 OD.

As to B3, the optical density was determined as 0.329 OD.

In turn, B4 displayed an optical density of 0.434 OD.

The molecule B5 came in with an optical density of 0.567 OD.

With B6, the optical density came to 0.281 OD.

Turning to B7, the optical density turned out to be 0.282 OD.

Take B8: the optical density came to 0.199 OD.

In turn, B9 showed an optical density of 0.29 OD.

Molecule B10 had an optical density of 0.191 OD.

Regarding B11, the optical density turned out to be 0.304 OD.

Turning to B12, the optical density came out at 0.166 OD.

Molecule B13 returned an optical density of 0.319 OD.

Turning to B14, the optical density stood at 0.312 OD.

B15: the optical density worked out at 0.289 OD.
